For assay [1], the target named is human ephrin type-A receptor 2 (EphA2), ectopically expressed on CHO cells (Homo sapiens, UniProt P29317). Put plainly: flow cytometry on cells.
The target in assay [2] is Lgr5 (control), ectopically expressed on CHO cells (Homo sapiens (assumed), UniProt O75473). Briefly: flow cytometry on cells.

We go through one molecule from PMC4256486 (Molecular & Cellular Proteomics : MCP, 2014).

Chain of Lgr5 (control), ectopically expressed on CHO cells (O75473 22-907): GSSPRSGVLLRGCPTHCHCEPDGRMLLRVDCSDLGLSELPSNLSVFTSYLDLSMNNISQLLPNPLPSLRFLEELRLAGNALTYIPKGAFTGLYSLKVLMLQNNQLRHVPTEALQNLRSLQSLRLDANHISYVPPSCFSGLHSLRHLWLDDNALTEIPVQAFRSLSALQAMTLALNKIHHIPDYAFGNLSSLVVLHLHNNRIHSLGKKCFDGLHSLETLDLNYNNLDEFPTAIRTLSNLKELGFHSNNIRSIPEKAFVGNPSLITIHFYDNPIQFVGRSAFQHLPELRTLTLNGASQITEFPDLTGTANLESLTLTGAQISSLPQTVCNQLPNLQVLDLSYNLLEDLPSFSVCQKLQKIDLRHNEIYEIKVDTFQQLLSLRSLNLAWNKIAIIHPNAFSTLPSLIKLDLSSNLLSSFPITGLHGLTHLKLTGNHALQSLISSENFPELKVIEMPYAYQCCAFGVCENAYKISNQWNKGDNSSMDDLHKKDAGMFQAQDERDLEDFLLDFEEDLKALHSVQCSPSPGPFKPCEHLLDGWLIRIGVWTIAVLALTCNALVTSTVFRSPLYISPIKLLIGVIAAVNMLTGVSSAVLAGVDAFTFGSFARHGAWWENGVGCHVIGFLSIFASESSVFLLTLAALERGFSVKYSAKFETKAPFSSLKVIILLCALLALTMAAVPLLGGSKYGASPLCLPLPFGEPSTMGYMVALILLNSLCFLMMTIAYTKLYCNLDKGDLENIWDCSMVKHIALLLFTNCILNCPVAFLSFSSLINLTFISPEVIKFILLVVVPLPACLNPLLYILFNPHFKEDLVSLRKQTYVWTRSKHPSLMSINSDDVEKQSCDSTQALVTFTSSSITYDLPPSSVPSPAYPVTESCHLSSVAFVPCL
Chain of human ephrin type-A receptor 2 (EphA2), ectopically expressed on CHO cells (P29317 24-976): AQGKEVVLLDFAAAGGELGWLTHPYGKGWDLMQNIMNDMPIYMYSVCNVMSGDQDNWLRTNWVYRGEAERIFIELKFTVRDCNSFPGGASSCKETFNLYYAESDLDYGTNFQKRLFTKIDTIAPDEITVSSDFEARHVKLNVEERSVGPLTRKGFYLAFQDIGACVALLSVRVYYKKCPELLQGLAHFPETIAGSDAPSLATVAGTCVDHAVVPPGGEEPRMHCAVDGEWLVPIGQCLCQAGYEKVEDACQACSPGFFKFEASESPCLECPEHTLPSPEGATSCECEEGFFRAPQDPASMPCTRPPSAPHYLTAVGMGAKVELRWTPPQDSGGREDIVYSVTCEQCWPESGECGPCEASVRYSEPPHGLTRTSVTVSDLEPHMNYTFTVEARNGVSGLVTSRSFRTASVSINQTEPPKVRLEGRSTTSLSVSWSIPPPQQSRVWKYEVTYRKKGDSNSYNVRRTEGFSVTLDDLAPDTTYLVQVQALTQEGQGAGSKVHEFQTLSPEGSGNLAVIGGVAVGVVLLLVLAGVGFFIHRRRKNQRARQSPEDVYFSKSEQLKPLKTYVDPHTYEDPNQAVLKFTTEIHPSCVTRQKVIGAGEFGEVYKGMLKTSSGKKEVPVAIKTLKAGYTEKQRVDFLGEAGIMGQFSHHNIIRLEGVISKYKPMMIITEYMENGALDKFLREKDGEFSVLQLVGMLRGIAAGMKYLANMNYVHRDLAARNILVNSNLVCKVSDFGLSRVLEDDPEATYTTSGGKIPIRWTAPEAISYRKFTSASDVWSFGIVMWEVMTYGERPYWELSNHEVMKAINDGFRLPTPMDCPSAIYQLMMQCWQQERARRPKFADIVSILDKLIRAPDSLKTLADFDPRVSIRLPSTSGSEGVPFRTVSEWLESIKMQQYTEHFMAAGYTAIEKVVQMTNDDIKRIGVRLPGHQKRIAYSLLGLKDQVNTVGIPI

B1: IgG HCA-F1 (antibody, V domains shown)
VH: QVQLQESGGGLVQPGGSLRLSCAASGFTFSSYSMNWVRQAPGKGLEWVSYISSSSSTIYYADSVKGRFTISRDNAKNSLYLQMNSLRAEDTAVYYCARYRLPDFWSGYPNYGMDVWGQGTTVTVSS
VL: QSVLTQPPSVSGAPGQRVTISCTGSSSNIGAGYDVHWYQQLPGTAPKLLIYGNSNRPSGVPDRFSGSKSGTSASLAITGLQAEDEADYYCQSYDSSLSGHVVFGGGTKLTVL
For the molecule B1, the binding result is listed as “binds” in assay [1] and “no binding” in assay [2].
